Source: patent publication US7981423B2, “Rage fusion proteins” (Transtech Pharma, Inc., priority 2004, dated 2011)

Legend:
[1] = test system: male C57BL/6 mice; test: Animal model of stroke (carotid/cerebral artery occlusion and reperfusion); format: in vivo, mouse; conditions: treated just prior to reperfusion
Description: For example, the RAGE fusion proteins of the present invention may also be used to treat stroke. […] In this model, the […] of a mouse is ligated and then reperfased to form an infart. To assess the efficacy of RAGE fusion proteins to treat or prevent stroke, mice were treated with sRAGE or TTP-4000 or control immunoglobulin just prior to reperfusion.
TTP-4000 was also compared to sRAGE in a disease relevant animal model of stroke. In this model, the […] of a mouse was ligated for 1 hour followed by 23 hours of reperfusion at which point the mice were sacrificed and the area of the infarct in the brain was assessed. […] After the nylon suture had been in place for 1 hour, the animal was re-anesthetized, rectal temperature was recorded and the suture was removed and the incision closed.
Infarct volume was determined by anesthetizing the animals with an intraperitoneal injection of sodium pentobarbital (50 mg/kg) and then removing the brains. […] The infarct area in each section was determined with a computer-assisted image analysis system, consisting of a Power Macintosh computer equipped with a Quick Capture frame grabber card, Hitachi CCD camera mounted on a camera stand. […] The images were captured and the total area of infarct was determined over the sections. […] Summing the infarct volumes of the sections calculated the total infarct volume. […]

[2] = test system: Zucker diabetic rats; test: Diabetic rat model of restenosis (balloon injury of left common carotid artery); format: in vivo
Description: In these experiments, balloon injury of left common carotid artery was performed in Zucker diabetic and nondiabetic rats using standard procedure. […] A maintenance dose was delivered every other day until day 7 after injury (i.e., at day 1, 3, 5 and 7 after injury). The maintenance dose was high=1 mg/animal for one group, or low=0.3 mg/animal for the second group. To measure vascular smooth muscle cell (VSMC) proliferation, animals were sacrificed at 4 days and 21 days after injury.
For the measurement of cell proliferation, 4 day animals received intraperitoneal injection of bromodeoxyuridine (BrDdU) 50 mg/kg at 18, 12, and 2 hours before euthanasia. After sacrifice, the entire left and right carotid arteries were harvested. Specimens were stored in Histochoice for at least 24 hours before embedding. Assessment of VSMC proliferation was performed using mouse anti-BrdU monoclonal antibody. A fluorescence labeled goat anti-mouse secondary antibody was applied. The number of BrdU-positive nuclei per section were counted by two observers blinded to the treatment regimens.
The remaining rats were sacrificed at 21 days for morphometric analysis. Morphometric analyses were performed by an observer blinded to the study groups, using computerized digital microscopic planimetry software Image-Pro Plus on serial sections, ([…]) carotid arteries stained by Van Gieson staining. All data were expressed as mean±SD. Statistical analysis was performed with use of SPSS software. Continuous variables were compared using unpaired t tests. A values of P≦0.05 was considered to be statistically significant.

[3] = test system: Fc receptor; test: Fc receptor activation, TNF-α secretion from THP-1 cells; format: cell-based; conditions: FIG. 12
Excerpt: Fc stimulation results in TNF-α secretion.

[4] = High dose 1.0 mg/animal qod × 4, loading dose 3 mg/animal, IP, 21 days, mean±SD
[5] = Low dose 0.3 mg/animal qod × 4, loading dose 3 mg/animal, IP, 21 days, mean±SD

B1: TTP-4000: four domain RAGE fusion protein (SEQ ID NO: 32): human RAGE amino acids 1-251 linked to CH2 and CH3 domains of human IgG (protein)
chain: MAAGTAVGAWALVLSLWGAVVGAQNITARIGEPLVLKCKGAPKKPPQRLEWKLNTGRTEAWKVLSPQGGGPWDSVARVLPNGSLFLPAVGIQDEGIFRCQAMNRNGKETKSNYRVRVYQIPGKPEIVDSASELTAGVPNKVGTCVSEGSYPAGTLSWHLDGKPLVPNEKGVSVKEQTRRHPETGLFTLQSELMVTPARGGDPRPTFSCSFSPGLPRHRALRTAPIQPRVWEPVPLEEVQLVVEPEGGAVAPPSVFLFPPKPKDTLMISRTPEVTCVVVDVSHEDPEVKFNWYVDGVEVHNAKTKPREEQYNSTYRVVSVLTVLHQDWLNGKEYKCKVSNKALPAPIEKTISKAKGQPREPQVYTLPPSRDELTKNQVSLTCLVKGFYPSDIAVEWESNGQPENNYKTTPPVLDSDGSFFLYSKLTVDKSRWQQGNVFSCSVMHEALHNHYTQKSLSLSPGK
- reduction in infarct volume compared to sRAGE (in words) [1]: significantly greater reduction in infarct volume
- vascular smooth muscle cell proliferation (BrdU proliferating cells, in words) ([2]; 4 days after injury, dose-responsive, FIG. 13B): significantly reduced
- Luminal area [2, 4]: 0.16 ± 0.02 mm^2
- Medial area [2, 4]: 0.11 ± 0.01 mm^2
- I/M ratio [2, 5]: 1.61 ± 0.26
- Luminal area [2, 5]: 0.18 ± 0.04 mm^2
- Medial area [2, 5]: 0.11 ± 0.02 mm^2
- intima/media ratio (in words) ([2]; dose-responsive, FIG. 13A): significantly reduced
- stimulation of TNF-α release from cells (in words) ([3]; conditions where human IgG stimulation of TNF-α release is detected): does not stimulate TNF-α release
- TNF generated ([3]; well precoated with 10 μg/well heat aggregated protein, THP-1 cells, 24 hours): less than 2 ng/well
